Results from the supplement of paper PMC10567573.

B1: HDAC6 (parent)
chain: YVHHQALLDVKNIAHQNKFGEDMP

Variants of: B1
Assay: protein stability index of a GFP-peptide fusion (GPS, HEK-293T) (PSI 1-6); higher = more stable
Details: c terminus: a fixed tail appended
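Note: lentivirally expressed fusions sorted by FACS into six bins by GFP to DsRed ratio, PSI derived from sequencing read proportions per bin multiplied by bin number.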

Q: Which protein stability index does the source give for YVHHQALLDVKNIAHQNKFGEDPP [M23P] here?
A: 2.18

Q: Which protein stability index does the source give for YVHHQALLDVKNIAHQNKFGEDIP [M23I] here?
A: 2.39

Q: Which protein stability index does the source give for YVHHQALLDVKNIAHQNKFGEDVP [M23V] here?
A: 1.74

Q: Which protein stability index does the source give for YVHHQALLDVKNIAHQNKFGEDNP [M23N] here?
A: 1.88

Q: Which protein stability index does the source give for YVHHQALLDVKNIAHWNKFGEDMP [Q16W] here?
A: 2

Q: With YVHHQALLDVKNIAHDNKFGEDMP [Q16D] as the variant, how does the protein stability index read?
A: 2

Q: Which protein stability index does the source give for YVHHQALLDVKNIAHANKFGEDMP [Q16A] here?
A: 1.63

Q: Which protein stability index does the source give for YVHHQALLDVKNIAHLNKFGEDMP [Q16L] here?
A: 2.21

Q: Which protein stability index does the source give for YVHHQALLDVKNIAHENKFGEDMP [Q16E] here?
A: 2.12

Q: Which protein stability index does the source give for YVHHQALLDVKNIAHNNKFGEDMP [Q16N] here?
A: 2.15

Q: For YVHHQALLDVKNIAHTNKFGEDMP [Q16T], which protein stability index is on record?
A: 1.91

Q: Which protein stability index does the source give for YVHHQALLDVKNIAHGNKFGEDMP [Q16G] here?
A: 1.58

Q: With YVHHQALLDVKNIAHPNKFGEDMP [Q16P] as the variant, how does the protein stability index read?
A: 2.3

Q: With YVHHQALLDVKNIAHSNKFGEDMP [Q16S] as the variant, how does the protein stability index read?
A: 1.87

Q: Which protein stability index does the source give for YVHHQALLDVKNIAHCNKFGEDMP [Q16C] here?
A: 2.01

Q: With YVHHQALLDVKNIAHINKFGEDMP [Q16I] as the variant, how does the protein stability index read?
A: 2.16

Q: For YVHHQALLQVKNIAHQNKFGEDMP [D9Q], which protein stability index is on record?
A: 1.68

Q: For YVHHQALLGVKNIAHQNKFGEDMP [D9G], which protein stability index is on record?
A: 1.85

Q: With YVHHQALLKVKNIAHQNKFGEDMP [D9K] as the variant, how does the protein stability index read?
A: 2.67

Q: With YVHHQALLSVKNIAHQNKFGEDMP [D9S] as the variant, how does the protein stability index read?
A: 2.25

Q: For YVHHQALLYVKNIAHQNKFGEDMP [D9Y], which protein stability index is on record?
A: 2.35

Q: For YVHHQALLEVKNIAHQNKFGEDMP [D9E], which protein stability index is on record?
A: 2.4

Q: Which protein stability index does the source give for YVHHQALLFVKNIAHQNKFGEDMP [D9F] here?
A: 2.23

Q: Which protein stability index does the source give for YVHHQALLWVKNIAHQNKFGEDMP [D9W] here?
A: 3.58

Q: Which protein stability index does the source give for YVHHQQLLDVKNIAHQNKFGEDMP [A6Q] here?
A: 1.86

Q: With YVHHQPLLDVKNIAHQNKFGEDMP [A6P] as the variant, how does the protein stability index read?
A: 1.69

Q: With YVHHQVLLDVKNIAHQNKFGEDMP [A6V] as the variant, how does the protein stability index read?
A: 1.86

Q: For YVHHQGLLDVKNIAHQNKFGEDMP [A6G], which protein stability index is on record?
A: 2.65

Q: With YVHHQCLLDVKNIAHQNKFGEDMP [A6C] as the variant, how does the protein stability index read?
A: 1.71

Q: With YVHHQLLLDVKNIAHQNKFGEDMP [A6L] as the variant, how does the protein stability index read?
A: 1.58

Q: Which protein stability index does the source give for YVHHQALLDVHNIAHQNKFGEDMP [K11H] here?
A: 2.21

Q: Which protein stability index does the source give for YVHHQALLDVCNIAHQNKFGEDMP [K11C] here?
A: 1.54

Q: Which protein stability index does the source give for YVHHQALLDVVNIAHQNKFGEDMP [K11V] here?
A: 1.41

Q: For YVHHQALLDVTNIAHQNKFGEDMP [K11T], which protein stability index is on record?
A: 2.25

Q: Which protein stability index does the source give for YVHHQALLDVFNIAHQNKFGEDMP [K11F] here?
A: 2.13

Q: For YVHHQALLDVNNIAHQNKFGEDMP [K11N], which protein stability index is on record?
A: 1.98

Q: With YVHHQALLDVINIAHQNKFGEDMP [K11I] as the variant, how does the protein stability index read?
A: 2.09

Q: For YVHHQALLDVKNIAHQHKFGEDMP [N17H], which protein stability index is on record?
A: 1.72

Q: Which protein stability index does the source give for YVHHQALLDVKNIAHQEKFGEDMP [N17E] here?
A: 1.91

Q: For YVHHQALLDVKNIAHQYKFGEDMP [N17Y], which protein stability index is on record?
A: 1.57

Q: For YVHHQALLDVKNIAHQLKFGEDMP [N17L], which protein stability index is on record?
A: 1.68

Q: With YVHHQALLDVKNIAHQSKFGEDMP [N17S] as the variant, how does the protein stability index read?
A: 2.46

Q: Which protein stability index does the source give for YVHHQALLDVKNIAHQGKFGEDMP [N17G] here?
A: 1.58

Q: With YVHHQALLDVKNIAHQPKFGEDMP [N17P] as the variant, how does the protein stability index read?
A: 2.12

Q: With YVHHQALLDVKNIAHQTKFGEDMP [N17T] as the variant, how does the protein stability index read?
A: 2.47

Q: Which protein stability index does the source give for YVHHQALLDVKNIAHQAKFGEDMP [N17A] here?
A: 2.83

Q: With YVHHQALLDVKNIAHQWKFGEDMP [N17W] as the variant, how does the protein stability index read?
A: 1.19

Q: For YVHHQALLDVKNIAHQDKFGEDMP [N17D], which protein stability index is on record?
A: 1.9

Q: Which protein stability index does the source give for YVHHQALLDVKNIAHQIKFGEDMP [N17I] here?
A: 1.48

Q: For YVHKQALLDVKNIAHQNKFGEDMP [H4K], which protein stability index is on record?
A: 1.78

Q: Which protein stability index does the source give for YVHFQALLDVKNIAHQNKFGEDMP [H4F] here?
A: 2.98

Q: With YVHMQALLDVKNIAHQNKFGEDMP [H4M] as the variant, how does the protein stability index read?
A: 1.83

Q: With YVHLQALLDVKNIAHQNKFGEDMP [H4L] as the variant, how does the protein stability index read?
A: 2.2

Q: With YVHVQALLDVKNIAHQNKFGEDMP [H4V] as the variant, how does the protein stability index read?
A: 1.95

Q: For YVHIQALLDVKNIAHQNKFGEDMP [H4I], which protein stability index is on record?
A: 1.97

Q: With YVHSQALLDVKNIAHQNKFGEDMP [H4S] as the variant, how does the protein stability index read?
A: 1.64

Q: With YVHHQALLDVKNIAHQNKFGEDMY [P24Y] as the variant, how does the protein stability index read?
A: 1.51

Q: With YVHHQALLDVKNIAHQNKFGEDMT [P24T] as the variant, how does the protein stability index read?
A: 2.17

Q: For YVHHQALLDVKNIAHQNKFGEDMF [P24F], which protein stability index is on record?
A: 1.49

Q: With YVHHQALLDVKNIAHQNKFGEDMW [P24W] as the variant, how does the protein stability index read?
A: 2.05

Q: With YVHHQALLDVKNIAHQNKFGEDMS [P24S] as the variant, how does the protein stability index read?
A: 2.25

Q: With YVHHQALLDVKNIAHQNKFGEDMV [P24V] as the variant, how does the protein stability index read?
A: 1.57

Q: Which protein stability index does the source give for YVHHQALLDVKNIAHQNKFGEDME [P24E] here?
A: 1.77

Q: Which protein stability index does the source give for YVHHQALLDVKNIAHQNKFGEDMN [P24N] here?
A: 2.19

Q: For YVHHQALLDVKNIAHQNKFGEDMI [P24I], which protein stability index is on record?
A: 2.06

Q: With YVHHQALLDVKNIAHQNKFGEDML [P24L] as the variant, how does the protein stability index read?
A: 2.23

Q: For YVHHQALLDVKNIAHQNKFGEDMH [P24H], which protein stability index is on record?
A: 1.58

Q: For CVHHQALLDVKNIAHQNKFGEDMP [Y1C], which protein stability index is on record?
A: 3.29

Q: Which protein stability index does the source give for HVHHQALLDVKNIAHQNKFGEDMP [Y1H] here?
A: 3.66

Q: Which protein stability index does the source give for PVHHQALLDVKNIAHQNKFGEDMP [Y1P] here?
A: 4.1

Q: For KVHHQALLDVKNIAHQNKFGEDMP [Y1K], which protein stability index is on record?
A: 4.06

Q: For DVHHQALLDVKNIAHQNKFGEDMP [Y1D], which protein stability index is on record?
A: 4.81

Q: For VVHHQALLDVKNIAHQNKFGEDMP [Y1V], which protein stability index is on record?
A: 3.14

Q: Which protein stability index does the source give for EVHHQALLDVKNIAHQNKFGEDMP [Y1E] here?
A: 4.05

Q: With FVHHQALLDVKNIAHQNKFGEDMP [Y1F] as the variant, how does the protein stability index read?
A: 1.94

Q: With YVGHQALLDVKNIAHQNKFGEDMP [H3G] as the variant, how does the protein stability index read?
A: 2.03

Q: Which protein stability index does the source give for YVCHQALLDVKNIAHQNKFGEDMP [H3C] here?
A: 1.89

Q: With YVMHQALLDVKNIAHQNKFGEDMP [H3M] as the variant, how does the protein stability index read?
A: 1.8

Q: With YVLHQALLDVKNIAHQNKFGEDMP [H3L] as the variant, how does the protein stability index read?
A: 2

Q: Which protein stability index does the source give for YVSHQALLDVKNIAHQNKFGEDMP [H3S] here?
A: 2

Q: Which protein stability index does the source give for YVEHQALLDVKNIAHQNKFGEDMP [H3E] here?
A: 2.81

Q: Which protein stability index does the source give for YVDHQALLDVKNIAHQNKFGEDMP [H3D] here?
A: 2.14

Q: For YVVHQALLDVKNIAHQNKFGEDMP [H3V], which protein stability index is on record?
A: 2.46

Q: For YVNHQALLDVKNIAHQNKFGEDMP [H3N], which protein stability index is on record?
A: 2.62

Q: With YVHHQALLDVKNIAHQNKFGEPMP [D22P] as the variant, how does the protein stability index read?
A: 2.21

Q: For YVHHQALLDVKNIAHQNKFGETMP [D22T], which protein stability index is on record?
A: 1.86

Q: Which protein stability index does the source give for YVHHQALLDVKNIAHQNKFGESMP [D22S] here?
A: 2.48

Q: With YVHHQALLDVKNIANQNKFGEDMP [H15N] as the variant, how does the protein stability index read?
A: 1.63

Q: With YVHHQALLDVKNIAVQNKFGEDMP [H15V] as the variant, how does the protein stability index read?
A: 2.08

Q: Which protein stability index does the source give for YVHHQALLDVKNIADQNKFGEDMP [H15D] here?
A: 2.2

Q: With YVHHQALLDVKNIAEQNKFGEDMP [H15E] as the variant, how does the protein stability index read?
A: 2.53

Q: For YVHHQALLDVKNIAQQNKFGEDMP [H15Q], which protein stability index is on record?
A: 2.08

Q: With YVHHQALLDVKNIALQNKFGEDMP [H15L] as the variant, how does the protein stability index read?
A: 1.91

Q: For YVHHQALLDVKNIAAQNKFGEDMP [H15A], which protein stability index is on record?
A: 2.57
